Assay results reported in patent US20230212533A1, “PRODUCTS AND METHODS FOR THE TREATMENT OF NICOTINE DEPENDENCE” (THE REGENTS OF THE UNIVERSITY OF MICHIGAN, priority 2020, published 2023).

Target: CycN cytochrome c protein (Pseudomonas putida S16) (Pseudomonas putida S16)
Assay: anaerobic stopped-flow spectrophotometry at 542 nm, 4 °C; NicA2-Flred mixed with excess CycNox; linear fit of first-phase kobs against CycNox concentration, said to report on the bimolecular association of the two proteins

kon: 1.3e+06 M⁻¹ s⁻¹
B1: NicA2 nicotine oxidoreductase (wild-type, Pseudomonas putida S16) (enzyme)
chain: TQKTNRASTVKGGFDYDVVVVGGGFAGATAARECGLQGYRTLLLEARSRLGGRTFTSRFAGQEIEFGGAWVHWLQPHVWAEMQRYGLGVVEDPLTNLDKTLIMYNDGSVESISPDEFGKNIRIAFEKLCHDAWEVFPRPHEPMFTERARELDKSSVLDRIKTLGLSRLQQAQINSYMALYAGETTDKFGLPGVLKLFACGGWNYDAFMDTETHYRIQGGTIGLINAMLTDSGAEVRMSVPVTAVEQVNGGVKIKTDDDEIITAGVVVMTVPLNTYKHIGFTPALSKGKQRFIKEGQLSKGAKLYVHVKQNLGRVFAFADEQQPLNWVQTHDYSDELGTILSITIARKETIDVNDRDAVTREVQKMFPGVEVLGTAAYDWTADPFSLGAWAAYGVGQLSRLKDLQAAEGRILFAGAETSNGWHANIDGAVESGLRAGREVKQLLS
